{
  "source": "the RNAGym collection of RNA variant scans (doi:10.1073/pnas.2313332121)",
  "parents": {"B1": {"name": "TPR 5TU (parent)", "chain": "GGAUCUUCUCGAUCUAACAAAAAAGACAAAUCUGCCACAAAGCUUGAGAGCAUCUUCGGAUGCAGAGGCGGCAGCCUUCGGUGGCGCGAUAGCGCCAACGUUCUCAACUAUGACACGCAAAACGCGUGCUCCGUUGAAUGGAGUUUAUCAUG"}},
  "note": "This sample holds only a part of the variants without activity.",
  "data": [
    {"variants_of": "B1", "test": "polymerase ribozyme fitness, log enrichment relative to wild type (log ratio); higher = more active; in vitro selection for triplet polymerase activity", "procedure,_shortened": "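Mutant libraries were PCR-built and transcribed for each subunit of a heterodimeric triplet polymerase ribozyme and selected for one round in triplicate at −7 °C, frozen, before gel excision of extended constructs and streptavidin-bead capture. Input and output libraries were Illumina-sequenced, keeping genotypes with ≥10 input reads and ≥1 read per output. Fitness is a logarithmic ratio of genotype to wild-type enrichment, in base 2, using inverse-variance-weighted replicate averages.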", "values": [
      {"variant": "GGAUCUUCUCGAUCUAACAAAAAAGACAAAUCUGCUACAAAGCUUGAGAGCAUCUUCGGGUGCAGAGGCGGCAGGCUUCGGUGGCGCGAUACCGCCAACGUUCUCAACUAUGACACGCAAAACGCGUGCUCCGUUGAAUGGAGUUUAUCAUG", "polymerase ribozyme fitness (log ratio)": "≤ -4.2"},
      {"variant": "GGAUCUUCUCGAUCUAACAAAAAAGACAAAUCUGCUACAAAGCUUGAGAGCAUCUUCGGAUGCAGAGGCGGCAGCCUUCGGUGGCGCGAUAGCGCCAACGUUCUCAACUAUGACACGCAAAACGCGUGCUCCGUUGAAUGGAGUUUAUCAUG", "polymerase ribozyme fitness (log ratio)": -0.919},
      {"variant": "GGAUCUUCUCGAUCUAACAAAAAAGACAAAUCUGCGACAAAGCUUGAGAGCAUCUUCGGAUGCAGAGGCGGCAGCCUUCGGUGGCGCGAUAGCGCCAACGUUCUCAACUAUGACACGCAAAACGCGUGCUCCGUUGAAUGGAGUUUAUCAUG", "polymerase ribozyme fitness (log ratio)": -3.16},
      {"variant": "GGAUCUUCUCGAUCUAACAAAAAAGACAAAUCUGCUACAAAGCUUGAGAGCCUCGUCCGAUGCAGAGGCGGCAGCCUUCGGUGGCGCGAUAGCGCCAACGUUCUCAACUAUGACACGCAAAACGAGUGCUGCGUUGAAUGGAGUUUAUCAUG", "polymerase ribozyme fitness (log ratio)": "≤ -4.2"},
      {"variant": "GGAUCUUCUCGAUCUAACAAAAAAGACAAAUCUGCUACAAAGCUUGAGAGCAUCUUCGGAUGCAGAGGCGGCAGCCUUCGGUGGCGCGAUAGCGCCUACGUUCUCAACUAUGACACGCAAAACGCGUGCCCCGUUGAAUGGAGUUUAUCAUG", "polymerase ribozyme fitness (log ratio)": -1.25},
      {"variant": "GGAUCUUCUCGAUCUAACAAAAAAGACAAAUCUGCGACAAAGCUUGAGAGCAUCUUCGGAUGCAGAGGCGGCAGCCUUCGGUGGCGCGAUACCGCCAACGUUCUCAACUAUGACACGCAACACGAGUGCUCCGUUGAAUGGAGUUUAUCAUG", "polymerase ribozyme fitness (log ratio)": "≤ -4.2"},
      {"variant": "GGAUCUUCUCGAUCUAACAAAAAAGACAAAUCUGCUACAACGCUUGCGUGCAUCAUCGGAUGCAGAGGCGGCAGCGUUCGGUGGCGCGAUAGCACCAACGUUCUCAACUCUGGCACGCAAAACGCGUGCUCCGUUGAAUGGAGUUUAGCAUG", "polymerase ribozyme fitness (log ratio)": -4.13},
      {"variant": "GGAUCUUCUCGAUCUAACAAAAAAGACAAAUCUGCUACAAAGCUUGAGAGCAUCUUGGGAUGCAGAGGAGGCAGCCUUCGGUGGCGCGAUAGCGCCAACGUUCUCAACUAUGACACGCAAAACGCGUGCUCCGCUGAAUGGAGUUUAUCAUG", "polymerase ribozyme fitness (log ratio)": -2.32},
      {"variant": "GGAUCUUCUCGAUCUAACAAAAAAGACAAAUCUGCUACAAAGCUUGAGAGCAUCUUCGGAUGCAGAGGCGGCAGCCUUCGGUGGUGCGAUAGCGCCAACGUUCUCAACUAUGACACGCAAAACGCGUGCUCCGUUGAAUGGAGUUUAUCAUG", "polymerase ribozyme fitness (log ratio)": -1.83},
      {"variant": "GGAUCUUCUCGAUCUAACAAAAAAGACAAAUCUGCUACAAAGCUUGAGAGCAUCUUCGGAUGCAGAGGCGGCAGCCUUCGGUGGAGCGAUAGCGCCAACGUUCUCAACUAUGACACGCAAAACGCGUGCUCCGUUGAAUGGAGUUUAUCAUG", "polymerase ribozyme fitness (log ratio)": -2.75},
      {"variant": "GGAUCUUCUCGAUCUAACAAAAAAGACAAAUCUGCUACAAAGCUUGAGAGCUCCUUCGGAUGCAGAGGCGGCAGCCUUUGGUGGCGCGAUUGCGCCAACGUUCUCAACUAUGACACGCAAAACGCGUGCUCCGUAGAAUGGAGUUUAUCAUG", "polymerase ribozyme fitness (log ratio)": "≤ -4.2"},
      {"variant": "GGAUCUUCUCGAUCUAACAAAAAAGACAAAUCUGCGACAAAGCUUGAGAGCAUGUUCGGAUGCAGAGGCGGCAGCCUUCGGUGGCGCGAUAGCGCCGUUGUUCAGAACUAUGACACACAAAACGCGUGCUCCCUUGAAUGGAGUUUAUCUUG", "polymerase ribozyme fitness (log ratio)": "≤ -4.2"},
      {"variant": "GGAUCUUCUCGAUCUAACAAAAAAGACAAAUCUGCUACCAAGCUUGAGAGCAUCUUCGGAUGCAGAGGCGGCAGCCUUCGGCGUCGCGAUAGCGCCAACGUUCUCAACUAUGACACGCCUAACGCGUGCUCCCUUGAAUGGUGUUUAUCAUG", "polymerase ribozyme fitness (log ratio)": "≤ -4.2"},
      {"variant": "GGAUCUUCUCGAUCUAACAAAAAAGACAAAUCUGCUACAAAGCUUGAGAGCAUCUUCGGAUGCAGAGGCGGCAGCCUUCGGUGGCGCGAUAGCGCCAACGUUCUCAAUUAUGACACGCAAAACGCGUGCUCCGUUGAAUGGAGUUUAUCAUG", "polymerase ribozyme fitness (log ratio)": "≤ -4.2"},
      {"variant": "GGAUCUUCUCGAUCUAACAAAAAAGACAAAUCUGCUACAAAGCUUGAGAGCAUCUUCGGAUGCAGAGGCGGCAGCCUUCGGUGGCGCGAUAGCGCGAACGUUCUCAACUAUGACACUCAAAACGCGUGCUCCGUUGAAUGGAGUUUAUCAUA", "polymerase ribozyme fitness (log ratio)": -3.09},
      {"variant": "GGAUCUUCUCGAUCUAACAAAAAAGACAAAUCUGCUACAAAGCUUGAGAGCAUCUUCGGAUGCAGAGGCGGCAGCCUUCGGUGGCGCGAUAGCGCCAACGUUCUCGACUAUGAGACGCAAAACGCGUGCUCCGUUGAAUGGAGUUUAUCAUG", "polymerase ribozyme fitness (log ratio)": -3.87},
      {"variant": "GGAUCUUCUCGAUCUAACAAAAAAGACAAAUCUGCGACAAAGCUUGAGAGCAUCUUCGGAUGCAGAGGCGGCAGCCUUCGGUGGCGCGAUAGCGACAACGUUUUCAACUAUGACACGCAAAACGCGUGCUCCGAUGACUGGAGUUUAUCAUG", "polymerase ribozyme fitness (log ratio)": "≤ -4.2"},
      {"variant": "GGAUCUUCUCGAUCUAACAAAAAAGACAAAUCUGCGACAAAGCUGGAGAGCAUUUUCGGAUGCAGAGGCGGCAGCCUUCGGUGGCGCGUUAGCUCCAACGUUCUCAACUAUGACACGCAAAACGGAUGCUCCGUUGAAUGGAGUUUAUCAUG", "polymerase ribozyme fitness (log ratio)": "≤ -4.2"},
      {"variant": "GGAUCUUCUCGAUCUAACAAAAAAGACAAAUCUGCUACAAAGCUUGAGAGCAUCUUCGGAUGCAGAGGCGGCAGCUUUCGGUGGCGCGAUAGCGCCAACGUUCUCAACUAUGACACGCAAAACUCGUGCUCCGUUGAAUGGAGUUUAUCAUG", "polymerase ribozyme fitness (log ratio)": -1.95}
    ]}
  ]
}
